Substitutions are numbered along the chain they refer to. Blank lines part the entries; values can stand above or below the molecule they belong to.
Columns and labels:
[1] = biological target: T1, IGF-1R on MCF-7 cells (Homo sapiens, UniProt P08069); test: IGF-1R internalization by FACS on MCF-7 cells; format: cell-based; conditions: Table 14c; MCF-7, 10 μg/ml, 4 h
T1 construct: host or cells: MCF-7
Description: (§1) MCF-7 cells were incubated with 10 μg/ml of chimeric antibodies at 4° C. for 20 min. Then, cells were washed and incubated at 4° C. or 37° C. for 4 h. The quantity of cell-surface bound antibody was determined using a secondary antibody. The ΔMFI defined as the difference between MFI measured at 4° C. and MFI measured at 37° C. after a 4 hour incubation time corresponded to the quantity of internalized second IGF-1R antibodies Ab. The percentage of internalization at 10 μg/ml of Ab were calculated as followed 100*(MFI at 4° C.-MFI at 37° C.)/MFI at 4° C. and presented in Table 12.
as §1, with “The capacity of the mAb hz208F2 H026/L024 to be internalized was assessed by flow cytometry. MCF-7” for “MCF-7”, “of” for “of chimeric”, “Then, cells were washed and incubated at 4° C. or 37° C. for 4 h.” left out, “internalized” for “internalized second IGF-1R antibodies”, “14a.” for “12.”
MCF-7 cells were incubated with 10 μg/ml of humanized antibodies at 4° C. for 20 min. […] The quantity of cell-surface bound antibody was determined using a secondary antibody on a FacsCalibur Flow cytometer (Becton Dickinson). […]

[2] = biological target: T2, soluble form of h-IGF1R (Homo sapiens, UniProt P08069); test: Biacore binding competition on captured soluble h-IGF1R; conditions: antibodies 50 μg/ml, 25° C.
T2 construct: a heterotetramer composed by two alpha chains and two extracellular domains of the beta chains; made in house
Text: The experiment was run on a Biacore X100 device based on the Surface Plasmon Resonance technology. A CM5 sensor chip was activated with a mouse anti-polyHistidine IgG1 monoclonal antibody chemically linked to the carboxymethyldextran matrix using the amine coupling chemistry. Typically, 12451 RU and 12257 RU of antibodies were grafted on the flowcell 1 (FC1) and flowcell 2 (FC2) respectively. The classical HBS-EP+ buffer was used as the running buffer. This buffer was also used for the preparation of the solutions of the proteins. The experiment was carried at 25° C. and at a flow rate of […].
The soluble form of IGF1R produced in house is a heterotetramer composed by two alpha chains and two extracellular domains of the beta chains completed by a 6 Histidine sequence at their C-terminal end. The protein is injected during one minute on the FC2 at the concentration of 30 μg/ml (about 80 nM). The antibodies are injected at the concentration of 50 μg/ml (about 330 nM). Either a first antibody solution (FIGS. 35B and 35D) or the running buffer (FIGS. 35A and 35C) is injected during 90 s on both flowcells. A second antibody solution is then injected on both flow cells. The absence of binding of the second antibody after the binding of the first antibody is the proof that both antibodies bind to a nearby site on the antigen (FIG. 35B) At the opposite the binding of the second antibody after the binding of the first antibody is the proof that the binding site of the second antibody is out and away of the binding site of the first antibody (FIG. 35D). At the end of each cycle, the sensor chip surface is regenerated by an injection of a Glycine, HCl 10 mM pH 1.5 buffer during 30 s.
The levels of binding of the Ac2 (arrows) without (FIGS. 35A and 35B) or with an Ac1 (FIGS. 35C and 35D) were recorded 20 s after the end of the injection. The data are represented on the histogram graph in FIG. 36.

[3] = biological target: T3, MCF-7 breast adenocarcinoma cell line (Homo sapiens, UniProt P08069); test: FACS binding of humanized variants on MCF-7
T3 construct: host or cells: MCF-7
Description: The binding properties of the humanized variants were evaluated by FACS analyses on the human MCF-7 breast adenocarcinoma cell line and the monkey cell line Cos-7 using increasing antibody concentrations. For that purpose, cells (1×10^6 cells/ml) were incubated with anti-IGF-1R antibodies for 20 min. at 4° C. in FACS buffer (PBS, 0.1% BSA, 0.01% NaN3). They were then washed 3 times and incubated with the appropriate secondary antibody coupled with Alexa 488 for 20 additional minutes at 4° C. in the dark before being washed 3 times in FACS buffer. The binding of anti-IGF-1R antibodies was immediately performed on viable cells which were identified using propidium iodide (that stains dead cells). The EC50 of binding expressed in molarity (M) was calculated using a nonlinear regression analysis (GraphPad Prims 4.0).

[4] = biological target: T4, IGF-1R, MCF-7 tumor cells (Homo sapiens, UniProt P08069); test: IHC detection of IGF-1R on MCF-7 xenograft sections; set-up: key: No reactivity or membranous reactivity in less than 10% of tumour cells; 1+: Faint/barely perceptible membranous reactivity is detected in more than 10% of tumour cells. The cells are immunoreactive only in part of the membrane.; 2+: Weak to moderate complete membranous reactivity is seen in more than 10% of tumour cells.; 3+: Strong complete reactivity is seen in more than 10% of tumour cells; conditions: membranous algorithm; antibody 5 μg/ml; paraffin embedded tumor
T4 construct: from tissue; host or cells: MCF-7 xenograft tumour grown in Swiss/Nude mice, paraffin sections
Description: (§2) Sections of tissue from MCF-7 xenograft were deparaffinized, rehydrated, and placed in Target Retrieval Buffer 1× (Dako S1699) in a boiling bath pre-warm at 98° C. for heat-induced epitope retrieval at 98° C. for 40 minutes then 20 additional minutes in the Target Retrieval Buffer. After 3 washes in Tris Buffer Saline-0.05% tween 20 (TBS-T) (Dako S3006) the Endogenous peroxidase activity was blocked using Peroxidase Blocking Reagent (Dako K4007) for five minutes. Sections were washed with TBS-T and incubated a blocking reagent (UltraV block-TA-125UB-LabVision) for 5 minutes before incubation with either the 816C12 monoclonal antibody (at 5 μg/ml) or mouse IgG1/kappa (5 μg/ml, X0931, Dako) as negative control for 1 hours at room temperature. Sections were washed with TBS-T and incubated with Envision (Dako) for 30 minutes. Diaminobenzidine was used for development of a brown reaction product (Dako K3468). The slides were immersed in hematoxylin for 2 minutes to counterstain (Dako S3309).

[5] = biological target: T5, IGF-1R, SBC-5 tumor (Homo sapiens, UniProt P08069); test: IHC detection of IGF-1R on SBC-5 xenograft sections; set-up: key: No reactivity or membranous reactivity in less than 10% of tumour cells; 1+: Faint/barely perceptible membranous reactivity is detected in more than 10% of tumour cells. The cells are immunoreactive only in part of the membrane.; 2+: Weak to moderate complete membranous reactivity is seen in more than 10% of tumour cells.; 3+: Strong complete reactivity is seen in more than 10% of tumour cells; conditions: same protocol as MCF-7; paraffin embedded tumor
T5 construct: from tissue; host or cells: SBC-5 xenograft tumour grown in athymic mice, paraffin sections
Description: as §2
Level of IGF-1R was analyzed using the same protocol described in section 2.1 of the example 2 before.

[6] = biological target: rhIR (Homo sapiens, UniProt P06213); test: direct ELISA on rhIR coating (816C12, 810D12); format: binding; conditions: for OD values obtained at 5 μg/ml by ELISA, rhIR coating: OD at 450 nm; for binding to the human IR: ELISA
Description: (§3) Further characterizations of 816C12 and 810D12 were then performed using hybridoma supernatant such as rhIGF-1R or rmIGF-1R or rhIR ELISA. In all direct ELISAs, proteins of interest were immobilized (1 μg/ml) to the bottom of each well. After saturation, hybridoma supernatants were added to the wells. After a 1-hour incubation period and a washing step, a solution of goat anti-mouse IgG—HRP labelled polyclonal antibody was used for detection, prior to the addition of the TMB substrate. The reaction was stopped with a 1M H2SO4 solution before reading the OD with a spectrophotometer at a 450 nm wavelength.

[7] = biological target: T6, rhIGF-1R (Homo sapiens, UniProt P08069); test: direct ELISA on rhIGF-1R coating (816C12, 810D12); format: binding; conditions: for OD values obtained at 5 μg/ml by ELISA, rhIGF-1R coating: OD at 450 nm; for EC50: ELISA dose response, Prism
T6 construct: poorly recognize the rhIGF-1R ECD protein when directly coated to ELISA plates; purchased R&D Systems 391-GR
Description: as §3
The dose response curves for the second IGF-1R antibodies on rhIGF-1R coating are presented in FIG. 1 for the 816C12 and in FIG. 1B for the 810D12. The values of the EC50 are determined using Prism application.

[8] = biological target: rmIGF-1R (Mus musculus, UniProt Q60751); test: direct ELISA on rmIGF-1R coating (816C12, 810D12); format: binding, murine; conditions: for OD values obtained at 5 μg/ml by ELISA, rmIGF-1R coating: OD at 450 nm; for binding to the murine form of the IGF-1R: ELISA
Chain of rmIGF-1R (Q60751 31-1373): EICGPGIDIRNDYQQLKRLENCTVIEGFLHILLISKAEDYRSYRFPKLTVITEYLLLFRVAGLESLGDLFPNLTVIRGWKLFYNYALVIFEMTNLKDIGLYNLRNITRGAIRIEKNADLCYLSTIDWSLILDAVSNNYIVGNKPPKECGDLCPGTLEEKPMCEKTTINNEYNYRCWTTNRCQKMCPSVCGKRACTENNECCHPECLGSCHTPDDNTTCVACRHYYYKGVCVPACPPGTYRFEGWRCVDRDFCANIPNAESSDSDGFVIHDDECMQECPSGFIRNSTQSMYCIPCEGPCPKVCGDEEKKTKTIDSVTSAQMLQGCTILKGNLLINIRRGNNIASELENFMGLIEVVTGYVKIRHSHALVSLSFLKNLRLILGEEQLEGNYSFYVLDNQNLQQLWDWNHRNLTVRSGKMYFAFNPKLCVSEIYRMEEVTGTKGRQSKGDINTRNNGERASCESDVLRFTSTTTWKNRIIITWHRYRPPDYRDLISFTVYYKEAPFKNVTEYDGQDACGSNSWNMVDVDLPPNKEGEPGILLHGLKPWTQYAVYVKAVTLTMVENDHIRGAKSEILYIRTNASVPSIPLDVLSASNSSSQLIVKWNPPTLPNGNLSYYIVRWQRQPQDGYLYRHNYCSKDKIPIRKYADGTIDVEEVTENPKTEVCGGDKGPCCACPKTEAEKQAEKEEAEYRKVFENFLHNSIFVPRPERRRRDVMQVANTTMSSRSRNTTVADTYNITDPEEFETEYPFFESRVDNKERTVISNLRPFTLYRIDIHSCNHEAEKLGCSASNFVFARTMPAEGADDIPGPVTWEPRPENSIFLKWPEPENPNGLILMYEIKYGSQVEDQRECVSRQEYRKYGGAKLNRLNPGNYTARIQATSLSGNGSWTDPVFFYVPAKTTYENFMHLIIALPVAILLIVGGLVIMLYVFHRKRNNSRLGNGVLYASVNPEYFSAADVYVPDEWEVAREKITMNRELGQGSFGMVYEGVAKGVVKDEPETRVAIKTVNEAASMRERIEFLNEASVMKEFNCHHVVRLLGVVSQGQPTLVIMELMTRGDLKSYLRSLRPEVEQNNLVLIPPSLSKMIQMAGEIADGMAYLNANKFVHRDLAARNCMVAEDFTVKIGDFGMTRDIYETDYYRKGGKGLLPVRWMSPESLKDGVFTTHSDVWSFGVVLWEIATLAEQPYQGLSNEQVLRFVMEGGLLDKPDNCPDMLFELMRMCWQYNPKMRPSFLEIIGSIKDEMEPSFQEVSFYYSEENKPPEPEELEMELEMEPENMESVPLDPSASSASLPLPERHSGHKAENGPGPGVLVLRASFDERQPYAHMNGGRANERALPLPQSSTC
Description: as §3

B1: hz208F2 H077/L018: humanized 208F2; VH SEQ ID No. 57, VL SEQ ID No. 34 (antibody, V domains shown)
VH: QVQLVQSGAEVKKPGASVKVSCKASGYTFTSYYIHWVRQAPGQGLEWMGWIWPGDGSTKYAQKFQGRVTMTRDTSTSTVYMELSSLRSEDTAVYFCASPMITPNYAMDYWGQGTLVTVSS
VL: DIQMTQSPSSLSASVGDRVTITCRASQDISKYLNWYQQKPGKAPKLLIYYTSRLQSGVPSRFSGRGSGTDYSLTISSLQPEDFATYFCQQGSTLPYTFGGGTKVEIK
modifications: hz208F2 heavy chain H077, VH; hz208F2 Light chain L018, VL
% Internalization [1]: 88%
ΔMFI [1]: 468
binding as Ac2 after Hz208F2-4 injected as Ac1 [2]: completely blocks the binding of itself

B2: hz208F2 H076/L021: humanized 208F2; VH SEQ ID No. 55, VL SEQ ID No. 37 (antibody, V domains shown)
VH: B1 VH with F95Y
VL: B1 VL with Q55H, Y71F
modifications: hz208F2 heavy chain H076, VH; hz208F2 Light chain L021, VL
EC50 [3]: 0.58 nM

B3: hz208F2 H049/L021: humanized 208F2; VH SEQ ID No. 41, VL SEQ ID No. 37 (antibody, V domains shown)
VH: B1 VH with I34M, T74K, T76S, F95Y
VL: B1 VL with Q55H, Y71F
modifications: hz208F2 heavy chain H049, VH; hz208F2 Light chain L021, VL
EC50 [3]: 0.66 nM

Results, then the molecule that gave them:

IHC scoring of the staining of MCF-7 tumor cells [4]: 3+
IHC scoring of IGF-1R in SBC-5 tumor [5]: 1+
OD values obtained at 5 μg/ml by ELISA, rhIR coating [6]: 0.048
binding to the human IR [6]: do not bind
OD values obtained at 5 μg/ml by ELISA, rhIGF-1R coating [7]: 2.136
EC50 [7]: 0.51 nM
OD values obtained at 5 μg/ml by ELISA, rmIGF-1R coating [8]: 1.293
binding to the murine form of the IGF-1R [8]: do not bind
binding as Ac2 after Hz208F2-4 injected as Ac1 [2]: practically no effect
B4: 810D12: first IGF-1R mouse monoclonal antibody, hybridoma CNCM I-4893; VH SEQ ID No. 7, VL SEQ ID No. 8 (antibody, V domains shown)
VH: EVQLQQSGPELVKPGASVKMSCKASGHTFTSYMLHWVKQKPGQGLEWLGFINPYNDVTKYNENFKGKATLTSDKSSSTAYMELNSLTSEDSAVYFCVTTAYYGNGRYFDVWGAGTTVTVSS
VL: DIQMTQTTSSLSASLGDRVTISCRASQDITNYLTWYQQKPDGTVKVLIYYTSRLYSGVPSRFSGSGSGSDYSLTINNLEQEDIATYFCQQGYSLPWTFGGGTKLEIK
modifications: 810D12 I-4893, heavy chain, Variable domain; 810D12 I-4893, light chain, Variable domain

IHC scoring of the staining of MCF-7 tumor cells [4]: 3+
IHC scoring of IGF-1R in SBC-5 tumor [5]: 1+
OD values obtained at 5 μg/ml by ELISA, rhIR coating [6]: 0.055
binding to the human IR [6]: do not bind
OD values obtained at 5 μg/ml by ELISA, rhIGF-1R coating [7]: 2.622
EC50 [7]: 0.41 nM
OD values obtained at 5 μg/ml by ELISA, rmIGF-1R coating [8]: 0.065
binding to the murine form of the IGF-1R [8]: do not bind
binding as Ac2 after Hz208F2-4 injected as Ac1 [2]: practically no effect
B5: 816C12: first IGF-1R mouse monoclonal antibody, hybridoma CNCM I-4894; VH SEQ ID No. 17, VL SEQ ID No. 18 (antibody, V domains shown)
VH: EVQLQQSGPELVKPGASVKMSCKASGHTFTSYVLHWMKRKPGQGLEWIGYINPHNDVTKYNENFKGKATLTSDKYSSTVYMEVSSLTSEDSAVYYCVSTAYYGNGRYFDVWGAGTTVTVSS
VL: B4 VL with T30N, T34N, V46L, Y55H, P59S, S69T, N76S, Y92N, S93T
modifications: 816C12 I-4894, heavy chain, Variable domain; 816C12 I-4894, light chain, Variable domain
